For assay [1], the target named is α-synuclein (α-syn) (UniProt P37840). Briefly: ThT fluorescence of ONE-induced self-aggregation. Particulars: reference: α-syn not treated with PLK3; sites S129.
For assay [2] the target is unchanged. As to the kind of experiment: ThT fluorescence of agitation-induced self-aggregation. To be noted: reference: α-syn not treated with PLK3; sites S129.

Turning to “α-synuclein (α-syn) (from UniProt P37840) PLK3-phosphorylated α-syn (p-α-syn)”, the fold change result with α-synuclein (α-syn) [1] and with α-synuclein (α-syn) [2] was “stronger; reference 1” in each case.

The values above are taken from PMC11082957.
